Laboratory results: patent US20220144921A1 (US Dept. of Health and Human Services, published 2022)

T1: recombinant non-structural protein 1 of DENV2 (Dengue virus serotype 2, UniProt P29990 776-1127)
T1 construct: domain: NS1; also called rNS1 DENV2
T1 sequence: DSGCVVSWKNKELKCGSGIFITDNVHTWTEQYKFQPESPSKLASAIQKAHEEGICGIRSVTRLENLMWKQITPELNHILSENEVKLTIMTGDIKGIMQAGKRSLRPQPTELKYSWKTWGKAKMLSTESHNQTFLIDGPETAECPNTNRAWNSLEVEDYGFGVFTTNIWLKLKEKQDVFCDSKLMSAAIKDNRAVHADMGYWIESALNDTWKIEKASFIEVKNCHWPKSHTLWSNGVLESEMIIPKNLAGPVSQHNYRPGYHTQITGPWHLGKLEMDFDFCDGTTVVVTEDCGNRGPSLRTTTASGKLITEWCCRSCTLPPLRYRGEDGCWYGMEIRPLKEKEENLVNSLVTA

T2: recombinant non-structural protein 1 of DENV3 (Dengue virus serotype 3, UniProt Q6YMS4 774-1125)
T2 construct: domain: NS1; also called rNS1 DENV3
T2 sequence: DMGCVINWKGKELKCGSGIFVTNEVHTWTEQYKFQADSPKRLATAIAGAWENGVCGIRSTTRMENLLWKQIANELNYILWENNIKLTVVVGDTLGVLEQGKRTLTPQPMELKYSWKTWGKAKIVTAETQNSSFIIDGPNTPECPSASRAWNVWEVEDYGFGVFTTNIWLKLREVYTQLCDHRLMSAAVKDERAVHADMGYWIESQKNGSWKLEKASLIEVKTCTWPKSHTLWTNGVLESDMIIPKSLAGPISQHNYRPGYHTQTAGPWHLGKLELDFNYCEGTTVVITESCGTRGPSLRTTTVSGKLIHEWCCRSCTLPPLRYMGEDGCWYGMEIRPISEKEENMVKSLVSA

T3: recombinant non-structural protein 1 of West Nile Virus (West Nile Virus, UniProt P06935 788-1139)
T3 construct: domain: NS1; also called rNS1 WNV
T3 sequence: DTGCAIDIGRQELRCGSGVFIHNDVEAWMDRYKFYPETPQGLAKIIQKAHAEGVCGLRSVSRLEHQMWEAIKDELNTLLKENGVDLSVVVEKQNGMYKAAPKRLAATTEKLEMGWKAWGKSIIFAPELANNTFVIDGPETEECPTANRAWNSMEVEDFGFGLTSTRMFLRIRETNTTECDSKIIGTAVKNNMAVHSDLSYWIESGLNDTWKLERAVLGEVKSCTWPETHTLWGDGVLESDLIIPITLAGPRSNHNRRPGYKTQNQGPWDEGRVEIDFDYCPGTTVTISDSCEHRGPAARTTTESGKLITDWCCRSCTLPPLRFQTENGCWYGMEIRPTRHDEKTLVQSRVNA

T4: recombinant non-structural protein 1 of DENV1 (Dengue virus serotype 1, UniProt P17763 776-1127)
T4 construct: domain: NS1; also called rNS DENV1; rNS1 DENV1
T4 sequence: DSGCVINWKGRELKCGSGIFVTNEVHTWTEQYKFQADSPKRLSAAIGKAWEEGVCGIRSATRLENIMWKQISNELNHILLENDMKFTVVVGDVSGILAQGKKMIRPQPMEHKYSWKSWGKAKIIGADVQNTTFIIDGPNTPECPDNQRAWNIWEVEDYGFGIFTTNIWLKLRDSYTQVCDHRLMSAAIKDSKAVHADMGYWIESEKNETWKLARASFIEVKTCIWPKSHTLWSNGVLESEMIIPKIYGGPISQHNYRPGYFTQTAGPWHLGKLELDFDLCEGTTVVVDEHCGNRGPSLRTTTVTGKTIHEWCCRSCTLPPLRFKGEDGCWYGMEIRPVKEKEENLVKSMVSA

T5: native NS1 on the surface of DENV1-infected Vero cells (Dengue virus serotype 1, UniProt P17763 776-1127)
T5 construct: domain: NS1; also called DENV1 (Cell-Based ELISA)
T5 sequence: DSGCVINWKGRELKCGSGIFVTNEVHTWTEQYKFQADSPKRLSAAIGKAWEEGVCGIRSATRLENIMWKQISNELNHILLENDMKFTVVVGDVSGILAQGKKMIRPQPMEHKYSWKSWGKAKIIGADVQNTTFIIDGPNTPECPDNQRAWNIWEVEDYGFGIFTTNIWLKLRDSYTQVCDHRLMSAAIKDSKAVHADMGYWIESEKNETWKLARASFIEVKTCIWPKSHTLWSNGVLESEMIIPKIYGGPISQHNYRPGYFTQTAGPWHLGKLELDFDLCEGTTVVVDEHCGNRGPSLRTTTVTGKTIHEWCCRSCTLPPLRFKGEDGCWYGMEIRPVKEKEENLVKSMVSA

T6: native NS1 on the surface of DENV2-infected Vero cells (Dengue virus serotype 2, UniProt P29990 776-1127)
T6 construct: domain: NS1; also called DENV2 (Cell-Based ELISA)
T6 sequence: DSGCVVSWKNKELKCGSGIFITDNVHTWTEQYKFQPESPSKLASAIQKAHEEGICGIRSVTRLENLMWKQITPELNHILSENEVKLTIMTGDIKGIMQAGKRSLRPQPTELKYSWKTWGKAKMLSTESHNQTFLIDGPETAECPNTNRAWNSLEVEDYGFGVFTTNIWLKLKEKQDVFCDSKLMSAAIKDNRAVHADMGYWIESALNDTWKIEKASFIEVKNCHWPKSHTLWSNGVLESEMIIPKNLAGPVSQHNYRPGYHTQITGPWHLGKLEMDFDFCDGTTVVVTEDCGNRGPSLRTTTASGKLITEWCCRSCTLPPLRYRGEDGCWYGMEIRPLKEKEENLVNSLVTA

T7: native NS1 on the surface of DENV3-infected Vero cells (Dengue virus serotype 3, UniProt Q6YMS4 774-1125)
T7 construct: domain: NS1; also called DENV3 (Cell-Based ELISA)
T7 sequence: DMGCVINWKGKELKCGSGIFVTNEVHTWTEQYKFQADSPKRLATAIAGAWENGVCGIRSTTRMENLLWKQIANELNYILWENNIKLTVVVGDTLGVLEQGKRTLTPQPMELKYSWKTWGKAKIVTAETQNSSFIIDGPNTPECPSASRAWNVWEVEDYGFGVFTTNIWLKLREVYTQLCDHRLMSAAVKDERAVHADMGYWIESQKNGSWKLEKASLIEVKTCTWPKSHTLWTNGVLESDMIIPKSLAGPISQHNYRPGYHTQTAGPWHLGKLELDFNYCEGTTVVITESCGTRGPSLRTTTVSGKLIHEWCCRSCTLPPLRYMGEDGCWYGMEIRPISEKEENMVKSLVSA

T8: native NS1 in culture supernatant of DENV1-infected Vero cells (Dengue virus serotype 1, UniProt P17763 776-1127)
T8 construct: domain: NS1
T8 sequence: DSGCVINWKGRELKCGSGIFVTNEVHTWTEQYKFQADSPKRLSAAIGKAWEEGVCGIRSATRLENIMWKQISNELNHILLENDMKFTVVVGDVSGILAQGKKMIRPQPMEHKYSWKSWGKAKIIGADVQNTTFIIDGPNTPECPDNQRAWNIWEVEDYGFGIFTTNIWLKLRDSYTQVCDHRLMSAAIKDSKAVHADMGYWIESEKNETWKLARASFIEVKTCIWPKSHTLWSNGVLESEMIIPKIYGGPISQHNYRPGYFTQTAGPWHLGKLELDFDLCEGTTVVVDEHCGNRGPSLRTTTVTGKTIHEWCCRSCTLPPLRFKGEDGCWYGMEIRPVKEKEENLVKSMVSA

T9: native NS1 in culture supernatant of DENV2-infected Vero cells (Dengue virus serotype 2, UniProt P29990 776-1127)
T9 construct: domain: NS1
T9 sequence: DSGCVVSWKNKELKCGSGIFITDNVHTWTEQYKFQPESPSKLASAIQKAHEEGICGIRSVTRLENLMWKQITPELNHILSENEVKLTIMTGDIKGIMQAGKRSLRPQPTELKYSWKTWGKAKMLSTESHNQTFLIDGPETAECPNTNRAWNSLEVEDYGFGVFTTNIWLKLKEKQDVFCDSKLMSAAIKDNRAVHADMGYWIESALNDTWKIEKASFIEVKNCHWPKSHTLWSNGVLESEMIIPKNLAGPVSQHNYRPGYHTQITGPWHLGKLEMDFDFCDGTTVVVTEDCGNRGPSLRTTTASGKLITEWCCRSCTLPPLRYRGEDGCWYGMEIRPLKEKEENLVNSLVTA

T10: native NS1 in culture supernatant of DENV3-infected Vero cells (Dengue virus serotype 3, UniProt Q6YMS4 774-1125)
T10 construct: domain: NS1
T10 sequence: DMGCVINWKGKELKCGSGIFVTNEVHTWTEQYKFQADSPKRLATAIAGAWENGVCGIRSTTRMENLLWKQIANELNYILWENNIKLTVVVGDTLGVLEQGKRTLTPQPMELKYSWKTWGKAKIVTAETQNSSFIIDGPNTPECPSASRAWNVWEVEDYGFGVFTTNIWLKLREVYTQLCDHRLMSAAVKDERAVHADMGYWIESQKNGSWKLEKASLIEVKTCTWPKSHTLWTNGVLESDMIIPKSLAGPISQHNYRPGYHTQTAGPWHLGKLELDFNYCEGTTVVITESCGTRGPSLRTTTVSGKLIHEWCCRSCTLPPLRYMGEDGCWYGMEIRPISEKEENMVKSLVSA


Tests used:
[1] = biological target: T1, recombinant non-structural protein 1 of …; assay: iELISA, FIG. 4 legend
[2] = biological target: T2, recombinant non-structural protein 1 of …; assay: iELISA, FIG. 4 legend
[3] = biological target: T3, recombinant non-structural protein 1 of …; assay: iELISA, FIG. 4 legend
[4] = biological target: T11, recombinant non-structural protein 1 of Yellow Fever Virus (Yellow Fever Virus, UniProt P03314 779-1130); assay: iELISA, FIG. 4 legend
T11 construct: domain: NS1; also called rNS1 YFV

[5] = biological target: T12, recombinant SUMO protein (small-ubiquitin-like modifier); assay: iELISA, FIG. 4 legend
T12 construct: also called SUMO* tag

[6] = biological target: T4, recombinant non-structural protein 1 of …; assay: iELISA, FIG. 4 legend
[7] = biological target: T1, recombinant non-structural protein 1 of …; assay: iELISA on recombinant protein
[8] = biological target: T2, recombinant non-structural protein 1 of …; assay: iELISA on recombinant protein
[9] = biological target: T3, recombinant non-structural protein 1 of …; assay: iELISA on recombinant protein
[10] = biological target: T11, recombinant non-structural protein 1 of …; assay: iELISA on recombinant protein
[11] = biological target: T4, recombinant non-structural protein 1 of …; assay: iELISA on recombinant protein
[12] = biological target: T5, native NS1 on the surface of …; assay: cell-based ELISA on infected Vero cells
[13] = biological target: T6, native NS1 on the surface of …; assay: cell-based ELISA on infected Vero cells
[14] = biological target: T7, native NS1 on the surface of …; assay: cell-based ELISA on infected Vero cells
[15] = biological target: T8, native NS1 in culture supernatant of …; assay: iELISA on Vero cell culture supernatant
[16] = biological target: T9, native NS1 in culture supernatant of …; assay: iELISA on Vero cell culture supernatant
[17] = biological target: T10, native NS1 in culture supernatant of …; assay: iELISA on Vero cell culture supernatant

Binder	OD value (450 nm) [1]	OD value (450 nm) [2]	OD value (450 nm) [3]	OD value (450 nm) [4]	OD value (450 nm) [5]	OD value (450 nm) [6]	binding result [7]	binding result [8]	binding result [9]	binding result [10]	binding result [11]	binding result [12]	binding result [13]	binding result [14]	binding result [15]	binding result [16]	binding result [17]
MAb 8A6F2 (antibody, V domains shown) VH: DVQLQESGPDLVKPSQSLSLTCTVTGYSITSGYNWHWIRQFPGNKLEWMGYIHYSGGTNYNPSLKSRISITRDTSKNQFFLQLNSVTTEDTATYYCARRTGTVPFAYWGQGTLVTVSA VL: EIVLTQSPALMAASPGEKVTITCSVSSSISSSNLHWYQQKSETSPKPWIYGTSNLASGVPVRFSGSGSGTSYSLTISSMEAEDAATYYCQQWSSYPLTFGGGTKLEIK	< 0 OD	< 0 OD	< 0 OD	< 0 OD	< 0 OD	< 0 OD	no binding	no binding	no binding	no binding	no binding	no binding	no binding	no binding	no binding	no binding	no binding
MAb 3H7A9 (antibody, V domains shown) VH: EVQLQQSGAELVKPGASVKLSCTASGFNIKDTYMHWVKQRPEQGLEWIGRIDPANGNTQYGPKFQGKATITADTSSNTAYLQLSSLTSEDTAVYYCARGGIFYYYGSSYSYAMDYWGQGTSVTVSS VL: DIQMTQTTSSLSASLGDRVTISCRASQDISNYLNWYQQKPDGTVTLLIYYTSRLHSGVPSRFSGSGSGTDYSLTISNLEQEDIATYFCQQGNTLPRTFGGGTKLEIK	< 0 OD	< 0 OD	< 0 OD	< 0 OD	< 0 OD	< 0 OD	no binding	no binding	no binding	no binding	no binding	no binding	no binding	no binding	no binding	no binding	no binding
MAb 6D4B10 (antibody, V domains shown) VH: EVQLQQSGPELVKPGASVKMSCKASGYTFTSYVMHWVKQKPGQGLEWIGYLNPYNDDTKYNEKFKGKATLTSDKSSSTAYMELSSLTSEDSAVYYCAYGPPYALDYWGQGTSVTVSS VL: QIVLTQSPAIMTASLGERVTMTCTASSSVSSSYLHWYQQKPGSSPKLWIYSTSNLASGVPARFSGSGSGTSYSLTISSMEAEDAATYYCHQYHRSPYTFGGGTKLEIK	< 0 OD	< 0 OD	< 0 OD	< 0 OD	< 0 OD	< 0 OD	no binding	no binding	no binding	no binding	no binding	no binding	no binding	no binding	no binding	no binding	no binding
